Residue numbers refer to the chain shown, from its start. Names may count otherwise.
B1: P01218-IgG1-SI (antibody, V domains shown)
VH: EVQLVESGGGVVQPGRSLRLSCAASGFTFSSYAMHWVRQAPGKGLEWVAVISYDGSNKYYADSVKGRFTISRDNSKNTLYLQMNSLRAEDTAVYYCARAPYYGSGSYYNSYYYYHGMDVWGQGTTVTVSS
VL: AIWMTQSPSSLSASVGDRVTITCQASQDISNYLNWYQQKPGKAPNLLIYDASNLETGVPSRFSGSGSGTDFTLTISSLQPEDIATYYCQQYDNLPLTFGGGTKVEIK
notes: VH and VL joined to IgG1 constant regions with SI mutations (S239D and I332E, EU numbering) in the Fc; also called P01218-IgGI-SI
B2: 1G7-IgG1-SI (antibody, V domains shown)
VH: QVQLVESGGGVVRPGGSLRLSCTASGFTFDDYGMTWVRQAPGKGLEWVSGINWNGGSTGYADSVKGRFTISRDNAKNSLFLQMNSLRAEDTALYYCARDQGIAVVGTHYYYYYGMDVWGQGTAVTVSS
VL: EIVLTQSPATLSLSPGERATLSCRASQSFSSYLAWYQQKPGQAPRLLIFDTSNRATGIPARFSGSGSGTDFTLTISSLEPEDFAVYYCQQRSNWPLTFGGGTKVEIK
notes: VH and VL joined to IgG1 constant regions with SI mutations (S239D and I332E, EU numbering) in the Fc
B3: 1E9-IgG1-SI (antibody, V domains shown)
VH: EVQMVESGGDVVRPGGSLRLSCAASGFMFDDYGMSWVRHVQGKGLEWVSGIDWNGDSTGYADSVKGRFTISRDNAKNSLYLQMNSLRAEDTALYYCARDQGIAVAGPYNYYYGMDVWGQGTTVTVSS
VL: B2 VL with F29V, Q38E, T51A, L96F, G100P, K103R
notes: VH and VL joined to IgG1 constant regions with SI mutations (S239D and I332E, EU numbering) in the Fc; also called 1E9-IgGI-SI
B4: 7B9-IgG1-SI (antibody, V domains shown)
VH: EVQLVESGGGVVQPGGSLRLSCAASGFTFDDYAMHWVRQAPGKGLEWVSLISGDDGSTYYADSMKGRITISRDNSKNSLYLQMNSLRTEDTAMYYCAKASYGSGSYLYNYGMDVWGQGTTVTVFS
VL: DIQLTQSPSSLSASVGDRVTITCQASQDIINYLNWYQQKPGKAPKLLIYDTSNLETGVPSRFSGSGSGTDFAFTINSLQPEDIATYYCQQFVNLPLTFGGGTKVEIK
notes: VH and VL joined to IgG1 constant regions with SI mutations (S239D and I332E, EU numbering) in the Fc; also called 7B9-IgGI-SI
B5: 3E6-IgG1-SI (antibody, V domains shown)
VH: EVQLVESGGGVVRPGGSLRLSCAASGFTFDDSGMSWVRQGPGKGLEWVSGINWNGGSTGYADSVKGRFTISRDNAKNSLYLQMNSLRAEDTALYYCARDPGIAVAGPYYYYYYGMDVWGQGTTVTVSS
VL: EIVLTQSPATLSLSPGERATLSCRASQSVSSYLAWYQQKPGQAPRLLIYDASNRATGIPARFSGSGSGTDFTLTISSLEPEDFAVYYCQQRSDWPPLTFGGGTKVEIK
notes: as for B2
B6: 4F10-IgG1-SI (antibody, V domains shown)
VH: QVQLQESGPGLVKPSETLSLTCTVSGGSISNYYWSWIRQPPGKGLEWIGYIYYSGSTNYNPSLKSRVNISVDTSKSQVSLKLNSVIAADTAVYYCARHEDYWYFDLWGRGTLVTVSS
VL: DIQLTQSPSSLSASIRDRVTITCRASQDINNYLAWFQQKPGKAPKSLIYAVSSLESGVPSKFSGSGSGTDFTLTISSLQPEDFATYFCQQYNSYPFTFGPGTKVEIK
notes: as for B2
B7: ESK1 analog (antibody, V domains shown)
VH: QMQLVQSGAEVKEPGESLRISCKGSGYSFTNFWISWVRQMPGKGLEWMGRVDPGYSYSTYSPSFQGHVTISADKSTSTAYLQWNSLKASDTAMYYCARVQYSGYYDWFDPWGQGTLVTVSS
VL: not shown
notes: Fully human TCR-like monoclonal IgG1 antibody
B8: P01264-IgG1-SI (antibody, V domains shown)
VH: EVQLVESGGGLVKPGGSLRLSCAASGFTFSNAWMNWVRQAPGKGLEWVGRIKSKTDGGTTDYAAPVKGRFTISRHDSKNTLYLQMNSLKTEDTAVYYCATDPRIAVTGTDYYYGMDVWGQGTTVTVSS
VL: DIVMTQTPSFLSASVGDRVTITCRASQDISNYLNWYQQKPGKAPKLLIYDASNLETGVPSRFSGSGSGTDFTFTISSLQPEDIATYYCQQYDNLPITFGQGTRLEIK
notes: as for B2
B9: 3A6-IgG1-SI (antibody, V domains shown)
VH: QVQLQESGPGMVKPSETLSLTCTVSGGSISYNYWSWIRQPPGKGLEWIGYIYHSGTTKYNPSLKSRVTMSVDTSKNHFSLKLNSVTAADTAVYYCARHEDYWFFDLWGRGTLVTVSS
VL: DIQMTQSPSSLSASVGDRVTITCRASQGISNYLVWFQQKPGKAPKSLIYAASILQSGVPSKFSGSGSGTDFTLTINSLQPEDFATYYCQQYNTYPFTFGPGTKVDIK
notes: as for B2
B10: P01199-IgG1-SI (antibody, V domains shown)
VH: B8 VH with E1Q, A40T, T60K, H75D, K89N, A99S
VL: not shown
notes: as for B2

Biological target: WT1RMF/HLA-A2 complex on cells (human)
Experiment: flow cytometry, T2 cells pulsed with 50 µM WT1RMF, antibody titrated 0.00096-45 nM, MFI curve

EC50	Binder
3.48 nM	B1
0.337 nM	B2
0.798 nM	B3
0.553 nM	B4
2.02 nM	B5
0.42 nM	B6
4.04 nM	B7
0.896 nM	B8
2.26 nM	B9

Biological target: WT1RMF/HLA-A2 complex on cells (human)
Experiment: flow cytometry (MFI), T2 cells pulsed with 50 µM WT1RMF, antibody titrated

EC50 (read off the curve)	Binder
~1 nM	B2

Biological target: His-tagged WT1RMF/HLA-A2 complex (human)
Experiment: SPR, Biacore 8K; antibody captured on Protein A chip, His-tagged complex as analyte; 1:1 Langmuir fit

Kd	koff	kon	Binder
16.1 nM	0.000902 s⁻¹	56200 M⁻¹ s⁻¹	B1
9.49 nM	0.00151 s⁻¹	159000 M⁻¹ s⁻¹	B2
22.4 nM	0.00164 s⁻¹	73100 M⁻¹ s⁻¹	B3
15.3 nM	0.00185 s⁻¹	121000 M⁻¹ s⁻¹	B4
30.3 nM	0.00451 s⁻¹	149000 M⁻¹ s⁻¹	B5
0.43 nM	0.000664 s⁻¹	1.54e+06 M⁻¹ s⁻¹	B6
67.4 nM	0.00987 s⁻¹	147000 M⁻¹ s⁻¹	B10
121 nM	0.0177 s⁻¹	146000 M⁻¹ s⁻¹	B8
7100 nM	0.0204 s⁻¹	2870 M⁻¹ s⁻¹	B9

Biological target: WT1RMF/HLA-A2 complex on cells (human)
Experiment: flow cytometry, T2 cells pulsed with 25 µM WT1RMF, antibody 10 µg/mL

Percentage of Positive Cells (%)	Binder
92.8%	B1
92.4%	B2
94.9%	B3
93%	B4
30.9%	B5
95.6%	B6
88.8%	B7
88.5%	B10
75.4%	B8
70.3%	B9

— patent US20260152571A1 (BIOCYTOGEN PHARMACEUTICALS BEIJING, published 2026)
